The supplement of paper PMC12764529
± gives the half width of the 95% confidence interval.

Experiments:
[1] = folding stability dG unfold from trypsin proteolysis; higher = more stable
How it was run: (§1)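 Designed mini-proteins with no cysteine and under 80 residues were kept only if AlphaFold2 dimer inter-PAE was above 15. In a PA-tagged cDNA display construct, they were digested with trypsin and chymotrypsin and then sequenced. K50 was inferred by Bayesian fitting of counts, and unfolding free energy was derived per protease or combined against a sequence-predicted unfolded-state K50 and a shared folded-state K50.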

[2] = folding stability dG unfold from chymotrypsin proteolysis; higher = more stable
How it was run: as §1

[3] = folding stability dG unfold (combined trypsin and chymotrypsin); higher = more stable
How it was run: as §1

Sequence	folding stability dG unfold [1]	folding stability dG unfold [2]	folding stability dG unfold [3]
SAGGSAGGSAGIRIYWDPENGWYRVKYPDPDGKPVDEHPMPPDQLPEFLQAGNIEVEPWPSAGGSAGGSAGG [r11_159_TrROS]	0.759 ± 0.035 kcal/mol	1.27 ± 0.081 kcal/mol	1 ± 0.095 kcal/mol
SAGGKIKLSPEALKALEEAIKKGDKNKTIFIELPDGSRIEVLPDGRIKVINKNGEEYELSEIKKIYPSAGGS [r16_664_TrROS_Hall]	2.99 ± 0.2 kcal/mol	2.31 ± 0.12 kcal/mol	2.58 ± 0.22 kcal/mol
STMTLKELKERFPGFPPEMIEEIAERAENDPPGEEVEIYIRFPNGYPIYITVTKPDTVTIQFIPPGEPVYSA [r9_1024_TrROS]	1.23 ± 0.089 kcal/mol	1.01 ± 0.22 kcal/mol	1.24 ± 0.26 kcal/mol
SAGGAVELRIVVRRTRPDPLTGRPVEEELTLTVPVDLDPERGVSAAEVARALAAALPDEVREVRAEPGSAGG [r13_335_TrMRF]	0.51 ± 0.17 kcal/mol	0.705 ± 0.08 kcal/mol	0.632 ± 0.12 kcal/mol
SAGGSAFPIRIKDDNQKKIMIPFDSPEELEDLLKEPGIDKVDPEPNPDGNQPWFTIDLPNGKIELWSAGGSA [r15_632_TrROS]	-1.53 ± 0.5 kcal/mol	-1.04 ± 0.66 kcal/mol	-0.826 ± 0.38 kcal/mol
SAGGSAGGKPPKFKVEVFIFPESNSVLVKIELPNSTLPFFIDKNGKIKGIKIIGDKVFNVSEGLSAGGSAGG [r6_241_TrMRF]	1.42 ± 0.12 kcal/mol	2.17 ± 0.097 kcal/mol	1.96 ± 0.17 kcal/mol
SAGGSAGGSAGGPTVTVKVKLEDGSTATVTYDLDTGELYIEVNGKTYKFPLGSKVEIEEVSAGGSAGGSAGG [r7_434_TrROS_Hall]	2.39 ± 0.28 kcal/mol	3.56 ± 0.054 kcal/mol	3.31 ± 0.17 kcal/mol
SAMKLEAPVVLDGKPVEVEFDAEPFEAPDGDVYYLVPLKVTFPDGRTYTARLRLKPGGKIVSVELLSDESAG [r14_341_TrMRF]	1.93 ± 0.028 kcal/mol	1.31 ± 0.19 kcal/mol	1.77 ± 0.061 kcal/mol
SAGGGSMVFVEFPQGGKTVRVDVDLEKGVLRVRFPGEGAVLEYPVRDPEAVVRELTPADVPVRAYPESAGGS [r8_95_JUSTAS]	0.346 ± 0.078 kcal/mol	0.405 ± 0.11 kcal/mol	0.439 ± 0.072 kcal/mol
SAGGSAGGSAGSMKTLVTTETSTVPGTTTTVTTTTTTTYDPTSSETTTTTTPVTNPAPAASAGGSAGGSAGG [r17_309_JUSTAS]	-0.827 ± 0.28 kcal/mol	1.05 ± 0.02 kcal/mol	0.711 ± 0.071 kcal/mol
SAGGPKWVIIIEIEIKPKNNGKEFEFTFVFPPGQTLDEIKSFIKEFAPPGHKVELKIEDIQLVPPDDSAGGS [r16_393_TrROS]	2.2 ± 0.15 kcal/mol	2.41 ± 0.039 kcal/mol	2.4 ± 0.12 kcal/mol
SAGGSAGGLIEEILKEIGLSPEEVVKVEVEPIEEKENSLTVRVTAEFLLPDGSKKKIEAEFEIGSAGGSAGG [r6_774_TrMRF]	1.1 ± 0.06 kcal/mol	1.13 ± 0.082 kcal/mol	1.21 ± 0.11 kcal/mol
SAGGSAGGSAGGNWYIIIYFPPGRKRIIPFDSPEEMREEMKENGMPIKIMPKEDAEKLLSAGGSAGGSAGGS [r10_66_TrROS]	0.848 ± 0.078 kcal/mol	1.25 ± 0.052 kcal/mol	1.14 ± 0.084 kcal/mol
SAGGSAKWVLVRIELEKGGKPLEFYQRVKAKEPELDIKIPPGIEEEGFKILRIEVEEISPEELEKESAGGSA [r15_853_TrMRF]	0.864 ± 0.04 kcal/mol	1.32 ± 0.18 kcal/mol	1.18 ± 0.15 kcal/mol
SAGLRLVLELELEVPPDVPPERVREAVEREVRDILGRLGIPLPPDARIVVEEVERRGRRVRFRVEVDFPSAG [r14_735_TrMRF]	5.13 ± 0.32 kcal/mol	5.08 ± 0.18 kcal/mol	5.01 ± 0.21 kcal/mol
SAGGSAGGMTIKIEVNGKIIEIELPEGIKEITKIEIKKDGTITLYIKDNKKKITIKLDKLKKLKSAGGSAGG [r6_369_TrROS_Hall]	1.2 ± 0.09 kcal/mol	3.01 ± 0.1 kcal/mol	2.34 ± 0.27 kcal/mol
SAGRFIRIRFKDPGMSMDNLVKEIKEELGIPPDHKVTIDWEPDPNGGYEITIQVDDPQVRDKILEALRSAGG [r19_215_TrROS]	3.46 ± 0.1 kcal/mol	2.5 ± 0.081 kcal/mol	2.97 ± 0.15 kcal/mol
SAVTPISLPSETGTLYRTDTDVILVVLKDPDPSVYRIITLKKKSADIKPLDENILGELSPEEANNPELLSAG [r14_384_JUSTAS]	0.617 ± 0.055 kcal/mol	0.756 ± 0.11 kcal/mol	0.742 ± 0.081 kcal/mol
SAGGSAGGSAGMINPKDVVEVSSSTDPNSSSGTLTVTLKDGKEITISYSSSSEAEAALLGSAGGSAGGSAGG [r11_339_JUSTAS]	1.1 ± 0.061 kcal/mol	1.52 ± 0.12 kcal/mol	1.44 ± 0.2 kcal/mol
SAGGSAGGSAGSLTLVSTSSDETEEPVVRYREVYAGPVPVRVTAEESLENPGNPRLRVVLSAGGSAGGSAGG [r11_618_JUSTAS]	-0.53 ± 0.22 kcal/mol	-0.275 ± 0.39 kcal/mol	-0.251 ± 0.14 kcal/mol
SAGMVVVEIRTRDGRTLTVEVEAESEEEAERLARELAEELRRKFPDLEIRVERVEPPEPPEEVVEEEEESAG [r5_950_TrROS_Hall]	3.23 ± 0.13 kcal/mol	3.41 ± 0.13 kcal/mol	3.42 ± 0.21 kcal/mol

Sequence	folding stability dG unfold [1]	folding stability dG unfold [2]	folding stability dG unfold [3]
SAGMLPPEETVTLTLTFPASSPLSLEEILARTPDVEVLSLKREALPDDTVRLTITVRPDHVARVRAALASAG [r5_554_JUSTAS]	3.37 ± 0.054 kcal/mol	4.63 ± 0.06 kcal/mol	4.32 ± 0.09 kcal/mol
SAGGSAGGSAGPTYKIKIYFEDTGVEAEVEINEDGSLTITVPKELLPPGAKVKVEIVKVPSAGGSAGGSAGG [r17_392_TrROS_Hall]	1.28 ± 0.057 kcal/mol	1.66 ± 0.098 kcal/mol	1.57 ± 0.26 kcal/mol
SAGKFPFMIKIEDKDGKPKDEIPIPAEELQDDPEKFLEIVETIADEFSKDGYRVKIYFPGTGQPIEIPISAG [r14_972_TrROS]	0.418 ± 0.2 kcal/mol	1.32 ± 0.15 kcal/mol	0.859 ± 0.2 kcal/mol
SAGGSAGGSAGGKKVIKVKVRIYPVDGSFEEKEVEAESLEELLEKVLEETHPESLIFIGSAGGSAGGSAGGS [r10_145_TrMRF]	0.912 ± 0.086 kcal/mol	0.14 ± 0.067 kcal/mol	0.59 ± 0.16 kcal/mol
SAGGSAGGTIWFDNPEDVERVVKDLRQEFPPDNPIDIMIWGPGSMYVIEITPDKIKDVEVYPMDSAGGSAGG [r6_289_TrROS]	0.318 ± 0.082 kcal/mol	0.683 ± 0.14 kcal/mol	0.598 ± 0.27 kcal/mol
SAGGSAGGMVVYLQLPDKEATFFVPPSLSEEEVKERLKKALGDPDAPLTNLKIEEATPEELALESAGGSAGG [r6_122_JUSTAS]	-0.153 ± 0.095 kcal/mol	0.515 ± 0.2 kcal/mol	0.222 ± 0.13 kcal/mol
SAMKEGQRLLVVKITIYNKNGEKVEELELVVPEEDKEKALEAAKKLAEELAKKLNLEIKIEVEEVPLPPSAG [r14_146_TrROS_Hall]	3.14 ± 0.2 kcal/mol	4.02 ± 0.078 kcal/mol	3.86 ± 0.13 kcal/mol
SAGGSAGGGGPGAPAVPTVSINIKIEEGEKVTIRNGTNKDEIIKSTKEEAEKKGKKVTVETVEGSAGGSAGG [r6_869_JUSTAS]	-0.273 ± 0.28 kcal/mol	1.26 ± 0.24 kcal/mol	0.883 ± 0.28 kcal/mol
SAGGMKVEVVPGGGAVVVEIPFPPTPATARLVISFHPDGTVTADLEPHPELPAELRAKLVELARELLGSAGG [r13_139_TrMRF]	1.6 ± 0.02 kcal/mol	2.31 ± 0.032 kcal/mol	2.07 ± 0.048 kcal/mol
SAGAATINPNPLTLEIESPDGTKYTVSPEEVQKIKDELEAKGKPPTLEEILNEIKKRFPNWRVSYSPESAGG [r19_46_JUSTAS]	3.06 ± 0.076 kcal/mol	3.59 ± 0.04 kcal/mol	3.44 ± 0.058 kcal/mol
SAGGSPTVTFDPETGAVTVTVNGQTQTAYIPPGDKVTLTVTFQSGGSGVPFTLELEVTVTPPKPLKSAGGSA [r2_116_TrMRF]	1.45 ± 0.074 kcal/mol	2.48 ± 0.061 kcal/mol	2.17 ± 0.12 kcal/mol
SAGGSAGGSAGPIKITSVEYDPNSGTIIARFPDGVVIRIKMNPDGNFKIDEIYPIKPGDLSAGGSAGGSAGG [r17_61_TrROS]	2.37 ± 0.088 kcal/mol	1.57 ± 0.08 kcal/mol	2.02 ± 0.14 kcal/mol
SAGGGTEIEYNPETGEIIVKVNPLIPYPFEPGSETIPLPFEGDPEAAEQEIRDLIEEHPDASFDIKPSSAGG [r13_284_TrMRF]	0.638 ± 0.085 kcal/mol	-1.32 ± 0.17 kcal/mol	0.0628 ± 0.061 kcal/mol
SAGGSRIEEVAREILEKLPLKPGEPVLVEVEVDFPDGLRIRLKVEAYVDPETGEVHLKVEILEIEPVSAGGS [r16_634_TrMRF]	3.24 ± 0.039 kcal/mol	2.91 ± 0.064 kcal/mol	3.06 ± 0.069 kcal/mol
SEWVKVKVEIKMPFYNGNKPMPMSIEVEYEVPPNDPGMTPEDLPPEELAKEAIEKAYDYMRKLGLPPDMFSA [r9_516_TrROS]	2.21 ± 0.19 kcal/mol	2.97 ± 0.12 kcal/mol	2.74 ± 0.39 kcal/mol
SAGGSAGGSAGMPVITVDVYEDDNTYTITITLSDGTPVVVTVTSPDTPVEEAVAAVIAALSAGGSAGGSAGG [r11_313_JUSTAS]	3.45 ± 0.15 kcal/mol	2.77 ± 0.16 kcal/mol	3.16 ± 0.16 kcal/mol
SAGGSAGGSAGKIKIVKDEKTGEYKLVVYDKNGKKVKTITLSKEELEKNPELLKKLLEELSAGGSAGGSAGG [r17_496_TrROS_Hall]	3.52 ± 0.27 kcal/mol	4.56 ± 0.15 kcal/mol	4.51 ± 0.17 kcal/mol
SAGGSAGGSAGGNPLKGNFFRLKLELTLKVEVKIPKKGEKKTFPIKIELELDVPPDSILSAGGSAGGSAGGS [r10_133_TrMRF]	3.39 ± 0.26 kcal/mol	3.98 ± 0.12 kcal/mol	3.69 ± 0.11 kcal/mol
SMVLELPAKDLKLEVNEDGTLKLTIKLENGKKVTFTFPAGDKITKIEVLSPDKVKIIFEKKPLKDLKTFLSA [r9_501_TrMRF]	1.1 ± 0.047 kcal/mol	1.76 ± 0.074 kcal/mol	1.61 ± 0.19 kcal/mol
SAGGSAGGDTITIWIPGMPLEELRDLLKAFFPGKDVSVEYDPEHGSFVLTVNGKKITIHIMPPNSAGGSAGG [r6_609_TrROS]	3.89 ± 0.1 kcal/mol	4.45 ± 0.061 kcal/mol	4.45 ± 0.086 kcal/mol
MTLEELKAAEGKRLEDVVTVEIVRVERDPETGEEKVVEKRTITFPPGMTLEELKALLESLPAEVRITRVRRS [r1_132_TrROS_Hall]	1.85 ± 0.041 kcal/mol	2.27 ± 0.035 kcal/mol	2.11 ± 0.11 kcal/mol
